# Laboratory results from article PMC4980427, “Ctf4 Links DNA Replication with Sister Chromatid Cohesion Establishment by Recruiting the Chl1 Helicase to the Replisome” (Molecular Cell, 2016).
# Molecular target: the molecule itself
# Test: negative-stain single-particle EM of reconstituted assemblies; purified Ctf4 core, GINS and Chl1 mixed in equimolar amounts; reconstituted assemblies on silver-stained gel and two-dimensional class averages
protein,measurement,value
"Ctf4 (residues 471–927) (domain or fragment, S. cerevisiae, UniProt Q01454 471-927, looked up, Ctf4 C-terminal trimerization core that contains the CIP box acceptor, residues 471-927; also called Ctf4 C-terminal trimerization core; Ctf4 core; source: E. coli, overexpressed, purified) TGKFRYMPFSPAGTPFGFTDRRYLTMNEVGYVSTVKNSEQYSITVSFFDVGRFREYHFEDLFGYDLCFLNEKGTLFGQSKTGQIQYRPHDSIHSNWTKIIPLQAGERITSVAATPVRVIVGTSLGYFRSFNQFGVPFAVEKTSPIVALTAQNYRVFSVHYSQFHGLSYSLSELGTSSKRYYKRECPLPMSLPNINSDMKKDANLDYYNFNPMGIKSLFFSSYGDPCIFGSDNTLLLLSKWRSPEESKWLPILDSNMEIWKMSGGKETTDIHVWPLALAYDTLNCILVKGKHIWPEFPLPLPSEMEIRMPVFVKSKLLEENKAILNKKNEIGADTEAEEGEEDKEIQIPVSMAAEEEYLRSKVLSELLTDTLENDGEMYGNENEVLAALNGAYDKALLRLFASACSDQNVEKALSLAHELKQDRALTAAVKISERAELPSLVKKINNIREARYEQQLK",stoichiometry N,3
